Assay results taken from patent publication US20100330107A1.

Legend:
24P4C12 (human) [1] = target: 24P4C12 (human) (UniProt Q53GD3); assay: FACS on LNCaP cells, ADC at 0.098 nM, anti-hIgG-PE detection
24P4C12 (human) [2] = target: 24P4C12 (human) (UniProt Q53GD3); assay: FACS on LNCaP cells, ADC at 0.293 nM, anti-hIgG-PE detection
24P4C12 (human) [3] = target: 24P4C12 (human) (UniProt Q53GD3); assay: FACS saturation binding on LNCaP cells with endogenous 24P4C12, one site binding fit
24P4C12 (human) [4] = target: 24P4C12 (human) (UniProt Q53GD3); assay: FACS on LNCaP cells, ADC at 106.667 nM, anti-hIgG-PE detection
24P4C12 (human) [5] = target: 24P4C12 (human) (UniProt Q53GD3); assay: FACS on LNCaP cells, ADC at 160.000 nM, anti-hIgG-PE detection
24P4C12 (human) [6] = target: 24P4C12 (human) (UniProt Q53GD3); assay: FACS on LNCaP cells, ADC at 0.878 nM, anti-hIgG-PE detection
24P4C12 (human) [7] = target: 24P4C12 (human) (UniProt Q53GD3); assay: FACS on LNCaP cells, ADC at 23.704 nM, anti-hIgG-PE detection
24P4C12 (human) [8] = target: 24P4C12 (human) (UniProt Q53GD3); assay: FACS on LNCaP cells, ADC at 7.901 nM, anti-hIgG-PE detection
24P4C12 (human) [9] = target: 24P4C12 (human) (UniProt Q53GD3); assay: FACS on LNCaP cells, ADC at 71.111 nM, anti-hIgG-PE detection
24P4C12 (human) [10] = target: 24P4C12 (human) (UniProt Q53GD3); assay: FACS on LNCaP cells, ADC at 0.011 nM, anti-hIgG-PE detection
24P4C12 (human) [11] = target: 24P4C12 (human) (UniProt Q53GD3); assay: FACS on LNCaP cells, ADC at 0.033 nM, anti-hIgG-PE detection
24P4C12 (human) [12] = target: 24P4C12 (human) (UniProt Q53GD3); assay: FACS on LNCaP cells, ADC at 2.634 nM, anti-hIgG-PE detection

UniProt Q53GD3, sequence (Q53GD3 whole entry): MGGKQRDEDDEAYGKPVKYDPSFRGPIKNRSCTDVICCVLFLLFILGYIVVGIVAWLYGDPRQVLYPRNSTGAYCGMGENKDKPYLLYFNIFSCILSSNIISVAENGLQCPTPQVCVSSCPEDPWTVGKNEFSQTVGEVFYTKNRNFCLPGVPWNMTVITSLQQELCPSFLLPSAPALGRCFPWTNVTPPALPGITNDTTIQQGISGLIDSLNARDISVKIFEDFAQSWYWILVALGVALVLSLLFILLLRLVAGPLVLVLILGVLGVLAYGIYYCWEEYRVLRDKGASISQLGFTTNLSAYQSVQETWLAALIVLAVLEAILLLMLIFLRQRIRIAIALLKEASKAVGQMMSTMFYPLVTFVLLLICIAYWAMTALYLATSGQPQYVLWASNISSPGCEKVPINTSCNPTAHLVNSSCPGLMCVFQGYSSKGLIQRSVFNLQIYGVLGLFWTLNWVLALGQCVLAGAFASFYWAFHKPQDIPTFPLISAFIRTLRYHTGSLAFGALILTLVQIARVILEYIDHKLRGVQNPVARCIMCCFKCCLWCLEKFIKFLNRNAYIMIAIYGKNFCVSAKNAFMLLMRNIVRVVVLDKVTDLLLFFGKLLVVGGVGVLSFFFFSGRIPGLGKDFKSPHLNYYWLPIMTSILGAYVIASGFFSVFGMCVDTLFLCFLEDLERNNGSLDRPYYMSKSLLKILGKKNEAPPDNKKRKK

MFI (24P4C12 (human) [1]): 15 MFI
MFI (24P4C12 (human) [2]): 28 MFI
Kd (24P4C12 (human) [3]): 1.05 nM
MFI (24P4C12 (human) [4]): 114 MFI
MFI (24P4C12 (human) [5]): 116 MFI
MFI (24P4C12 (human) [6]): 54 MFI
MFI (24P4C12 (human) [7]): 97 MFI
MFI (24P4C12 (human) [8]): 86 MFI
MFI (24P4C12 (human) [9]): 108 MFI
MFI (24P4C12 (human) [10]): 7 MFI
MFI (24P4C12 (human) [11]): 9 MFI
MFI (24P4C12 (human) [12]): 70 MFI
B1: Ha5-1(5)2.1vcMMAE (antibody, human IgG2, kappa, V domains shown)
VH: QVQLVESGGGVVQPGRSLRLSCAASGFTFSSYGMHWVRQAPGKGLEWVAVMSYDGSKKFYTDSVKGRFTISRDNSKNTLYLQMNSLRAEDTAVYYCARDGGDYVRYHYYGMDVWGQGTTVTVSS
VL: DIQMTQSPSTLSASIGDRVTITCRASQGISYYLAWYQQKPGKIPKLLIYDTSSLQSGVPSRFSGSRSGTDLSLTISSLQPEDVATYYCQRYDSAPLTFGGGTKVEIKR
modifications: vcMMAE (Val-Cit linker with monomethyl auristatin E) on cysteine thiols freed by partial reduction with TCEP; p about 3.6 drugs per antibody; positions not given
